For 2 proteins, Km and Vmax results are on record in patent US20250051266A1, “Novel GLV-Phenolamide: Biosynthesis and Function in Protecting Plants from Herbivore Attack” (Max-Planck-Gesellschaft zur Förderung der Wissenschaften …, priority 2021, published 2025).

What all share (format): biochemical, Nicotiana attenuata
Common to all, as to conditions: other substrate fixed ((Z)-3-hexenal 1 mM or caffeoylputrescine 80 μM)

Substrate in series [1]: CC/C=C\CC=O
Kind of series: Steady-state Michaelis-Menten kinetics of NaPPO2 (with or without NaBBL2).
Source text: (§1) FIG. 50 Michaelis-Menten kinetics of PPO2 and BBL2 with different concentrations of caffeoylputrescine and (Z)-3-hexenal. Steady-state kinetics of caffeoylputrescine or (Z)-3-hexenal conversion to CPH catalyzed by PPO2 purified from E. coli B121 expressing PPO2. Error bars represent the standard error of the means (SEM) from three independent measurements of reaction velocity. The kinetic constants, apparent Km and Vmax (Table 2), and their standard errors were inferred using nonlinear Michaelis-Menten curve-fitting in GraphPad Prism (v. 9.0d). Substrate concentration for (Z)-3-hexenal was 1 mM.
as §1, with “52” for “50”, “mM.Substrate concentration for caffeoylputrescine was 80 μM.” for “mM.”
(§2) Steady-state kinetics of NaPPO1, NaPPo2 and NaBBL2 enzymes: For steady-state kinetic analysis, the ability to oxidize N-caffeoylputrescine was tested in 84 mM acetate buffer (pH 4.8) at 22° C. water bath, containing 1 mM (Z)-3-hexnal, 1 mM FAD, 32 μg NaPPO1/NaPPO2, 30 μg/90 μg NaBBL2 (total volume 100 μL); assays lacking NaBBL2 enzymes served as negative controls.
(§3) The following eight N-caffeoylputrescine final concentrations were each tested at three independent experiments: 10, 20, 40, 60, 80, 120, 140, and 160 μM. Likewise, the ability to catalyze (Z)-3-hexnal was tested in 84 mM acetate buffer (pH 4.8) at 22° C., containing 80 μM N-caffeoylputrescine, 1 mM FAD, 32 μg NaPPO1/NaPPO2, 30 μg/90 μg NaBBL2 (total volume 100 μL); again, assays lacking NaBBL2 enzymes served as negative controls. The following eight (Z)-3-hexnal final concentrations were each tested in three independent experiments: 500, 600, 700, 800, 1000, 1200, 1600, and 2000 μM. The reactions were initiated by the addition of the corresponding recombinant enzymes and the components were mixed by briefly vortexing, and immediately returned to the 22° C. water bath for incubation. After 20 minutes, all the reactions were briefly vortexed, and 100 μL aliquot of each reaction was transferred to a cold Eppendorf tube (−20° C.) containing 100 μL of MeOH (with 600 ng/mL testosterone as an internal standard) to terminate enzyme activity. Samples were centrifuged at 16,000g, 4° C. for 30 min, and 150 μL supernatants were transferred into to 2 mL glass vials for LC/MS (1 μL injection volume) analysis under the same method as described previously. Standard curves for caffeoylputrescine using authentic standards (with 600 ng/mL testosterone as an internal standard) (FIG. 34) were used to calculate the concentrations of substrate and product in each assay sample. The kinetic constants for caffeoylputrescine and (Z)-3-hexnal, apparent Km and Vmax, were inferred using a nonlinear regression in GraphPad Prism 9 (FIG. 34).

Substrate in series [2]: NCCCCNC(=O)/C=C/c1ccc(O)c(O)c1
The series is described as above.
Source text: as §1
as §1, with “52” for “50”, “mM.Substrate concentration for caffeoylputrescine was 80 μM.” for “mM.”
as §2, §3

Substrate in series [3]: CC/C=C\CC=O
Briefly: Steady-state Michaelis-Menten kinetics of NaPPO1 (with or without NaBBL2).
Source text: as §1, with “49” for “50”, “PPO1” for “PPO2”, “PPO1.” for “PPO2.”
(§4) FIG. 51 Michaelis-Menten kinetics of PPO1 and BBL2 with different concentrations of caffeoylputrescine and (Z)-3-hexenal. Steady-state kinetics of caffeoylputrescine or (Z)-3-hexenal conversion to CPH catalyzed by PPO1 purified from E. coli B121 expressing PPO1. Error bars represent the standard error of the means (SEM) from three independent measurements of reaction velocity. The kinetic constants, apparent Km and Vmax (see Table 2), and their standard errors were inferred using nonlinear Michaelis-Menten curve-fitting in GraphPad Prism (v. 9.0d). Substrate concentration for caffeoylputrescine was 80 μM.
as §2, §3

Substrate in series [4]: NCCCCNC(=O)/C=C/c1ccc(O)c(O)c1
Described as above.
Source text: as §1, with “49” for “50”, “PPO1” for “PPO2”, “PPO1.” for “PPO2.”
as §4, §2, §3

Setting [5] is: other: PPO2 + BBL2 (30 μg), pH 4.8, 22.0 °C.
[6] abbreviates: other: PPO2 + BBL2 (90 μg), pH 4.8, 22.0 °C.
[7] abbreviates: other: PPO2 alone, pH 4.8, 22 °C.
Setting [8] is: other: PPO1 + BBL2 (30 μg), pH 4.8, 22.0 °C.
The mark [9] stands for this setting: other: PPO1 + BBL2 (90 μg), pH 4.8, 22.0 °C.
The mark [10] stands for this setting: other: PPO1 alone, pH 4.8, 22 °C.

B1: NaPPO2 (Nicotiana attenuata) (protein)
chain: MASSSSSTLPLCASKTPSSSFTNTNSSFFAKPSQLFLHGKRNQNFKFSCNANSGEHDKNLDAVDRRNVLLGLGGLYGAANLAPLATAAPIPPPDLKSCSKAHINDQEEVSYSCCPPIPSDMDSVPYYKFPSMPKLRIRPAAHAADEEYIAKYQLATSRMRELDKDPFDPLGFKQQANIHCAYCNGAYKIGGKELQVHFSWLFFPFHRWYLYFYERILGSLINDPTFGLPYWNWDHPKGMRIPPMFDREGSSLYDARRNQSHRNGTIIDLGYFGTEVQTTQLQQMTNNLTIMYRQMITNAPCPLLFFGQPYPLGTDPSPGMGTIENIPHTPVHIWVGSGPNENNVQHGEDMGNFYSAGLDPLFYSHHANVDRMWSEWKALGGKRRDLTHKDWLNSEFFFYDENRNPFRVKVRDCLDSKKMGFDYAPMPTPWRNFKPIRKSNAGKVNLSSVPPASRVFPLSKLDRAISFSIDRPSSSRTQQEKNEQEEMLTFNNIKYDDSKYIRFDVFLNVDKTVNADELDKAEYAGSYTSLPHVHGDNASHVTSVTFQLAITELLEDIGLEDEDTIAVTVVPKTGGEEISIEGVEIKLVDC
For orientation: Km means the concentration of substrate that gives half-maximal velocity. What is called Vmax is the top rate of the reaction or transport when substrate is in excess. Take B1: the Km in series [1] (setting [5]) is 662.39 ± 360.69 µM; in series [1] (setting [6]) it was 643.31 ± 217.25 µM; in series [1] (setting [7]), 673.35 ± 393.28 µM; in series [2] (setting [5]), 206.18 ± 49.95 µM; in series [2] (setting [6]) it was 207.19 ± 78.07 µM; in series [2] (setting [7]) it was 204.35 ± 51.37 µM. Further, the Vmax stood at 0.021 ± 0.004 µM/mg/min in series [1] (setting [5]); 0.024 ± 0.003 µM/mg/min in series [1] (setting [6]); 0.023 ± 0.005 µM/mg/min in series [1] (setting [7]); 0.63 ± 0.09 µM/mg/min in series [2] (setting [5]); 0.67 ± 0.17 µM/mg/min in series [2] (setting [6]); 0.64 ± 0.10 µM/mg/min in series [2] (setting [7]).

B2: NaPPO1 (Nicotiana attenuata) (protein)
chain: MASSSTLPLCTTKTPFSSSTNSFFFAKPSHLFLNGKRNQSFKVSCTGEHDGNQLDAIKEGAVERRNVLLGLGGLYGAANLAPLASAAPVPPPDLKSCGPATITDGPTVSYSCCPPTPDDMDSVPYYKIPRMSKLRKRPAAQDVSEEYIAKYQLATSKMRELDKDPFDPLGFKQQANIHCAYCNDAYTMGDKKLQVHQSWLFFPFHRWYLYFYERILGSLIDDPTFALPYWNWDHPSGMRLPAMFDVEGSSLYDARRNPNVRNGTIIDLGFFGNEVKTNEIQMITNNLILMYRQMITNAPSPLLFFGEPYRFGSKPNPGQGTIENIPHTPVHIWTGTVRDTDLGNGVKSYGEDMGNFYSAGLDPVFYSHHANVDRMWNEWKALGGKRRDLTDKDWLNSEFFFYDENRDPWRVKVRDCLDSKKMGYDYEPKATPWRNFKPGKKTTPGKVNLRSVKPASKVFPLSNLDRAICFSIERPATSRSQQEKDEFEEVLTFKNLKYDDSRYIKFDVFVNADKTVNADDIDKTEYAGSYTSLPHVHGPNNATHVVEVEEFKLAITELLEDCGLEDDDIIAVTVVPKTGGEVVSIDCVLIELKAFY
For the protein B2, the Km in series [3] (setting [8]) came to 870.67 ± 381.05 µM; in series [3] (setting [9]), 870.67 ± 381.05 µM; in series [3] (setting [10]), 853.22 ± 257.87 µM; in series [4] (setting [8]), 86.09 ± 15.34 µM; in series [4] (setting [9]) it was 95.52 ± 28.20 µM; in series [4] (setting [10]), 67.30 ± 10.59 µM. For the same protein, the Vmax in series [3] (setting [8]) was determined as 0.10 ± 0.02 µM/mg/min; in series [3] (setting [9]), 0.09 ± 0.02 µM/mg/min; in series [3] (setting [10]), 0.09 ± 0.01 µM/mg/min; in series [4] (setting [8]) it was 0.25 ± 0.02 µM/mg/min; in series [4] (setting [9]) it was 0.26 ± 0.04 µM/mg/min; in series [4] (setting [10]) it was 0.21 ± 0.01 µM/mg/min.
